The target of assay [1] is ZIKV envelope protein (E) in infected Vero cells (Zika virus (MR766 strain)). Briefly: proximity ligation.
Assay [2] shares this target. Briefly: proximity ligation. The source holds these as a separate data set.

Like-named read-outs stand apart in the source and are kept apart here.

For the substance “naturally occurring dynein (cytoplasmic dynein-1) of Vero cells, detected by its heavy chain (natural protein)”, the values for the PLA dots per cell (dots per cell) in assay [1] and in assay [2] were more than 6 and less than 1, respectively.
